Measurements reported in US6537804B1, “BCR-ABL directed compositions and uses for inhibiting Philadelphia chromesome stimulated cell growth” (Board of Regents, The University of Texas Systems, priority 1995, dated 2003).
Changes are numbered by the printed parent chain. Names and notes keep the numbering of the source. Non-standard residues stand in square brackets, D forms with d. No end group written: not given here. pY = N[C@@H](Cc1ccc(OP(=O)(O)O)cc1)C(=O)O

How the values were obtained:
[1] = target: T1, c-Abl SH2 (Mus musculus, UniProt P00520); assay: Binding of phosphotyrosine tryptic peptides of Bcr-Abl to GST-Abl SH2; conditions: phosphotyrosine tryptic peptides of p210 Bcr-Abl; no binding to GST
T1 construct: The inventors performed similar studies with the SH2 domain of Abl; made in house
T1 sequence (P00520 127-217 limits assumed): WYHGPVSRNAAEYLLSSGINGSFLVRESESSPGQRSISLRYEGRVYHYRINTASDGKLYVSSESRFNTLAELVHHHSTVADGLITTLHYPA
Description: FIG. 10A and FIG. 10B show an absorbed tryptic map of p210. GST-Abl SH2 binds phosphotyrosine tryptic peptide 3, which contains tyrosine 283. p210 Bcr-Abl labeled in the in vitro kinase assay from K562 cells was purified on SDS gels, digested with trypsin and the digest was split in two parts. One was absorbed with GST (FIG. 10A) and the other with GST-Abl SH2 (FIG. 10B). […] The dashed circles identify peptides lacking in the GST-Abl SH2 absorbed fractions.
The inventors performed similar studies with the SH2 domain of Abl. These were performed with a mouse c-Abl SH2 sequence, which differs by only two amino acids from the human sequence within the SH2 domain.

[2] = target: T2, amino terminal SH2 domain of Ras Gap (Homo sapiens, UniProt P20936); assay: Binding of phosphotyrosine tryptic peptides of Bcr-Abl to GST-Gap SH2; conditions: phosphotyrosine tryptic peptides of p210 Bcr-Abl; no binding to GST
T2 construct: the amino terminal SH2 domain of Ras Gap was expressed as a fusion protein containing the glutathione S transferase protein (GST); made in house
T2 sequence (P20936 181-272 limits assumed): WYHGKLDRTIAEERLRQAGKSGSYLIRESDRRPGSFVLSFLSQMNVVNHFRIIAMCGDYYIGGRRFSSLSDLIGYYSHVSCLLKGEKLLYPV
Description: The inventors have conducted studies in which the amino terminal SH2 domain of Ras Gap was expressed as a fusion protein containing the glutathione S transferase protein (GST). These studies involve mixing GST-Gap SH2 with phosphotyrosine tryptic peptides of Bcr-Abl.

[3] = target: SH2 domain of Grb2 (Homo sapiens, UniProt P62993); assay: Binding of Bcr peptide to Grb2; conditions: tyrosine 177 phosphorylated peptide
[4] = test system: simian Grb2 protein; assay: Co-immunoprecipitation of Grb2 with p160 BCR from COS1 cells, anti-Grb2 Western blotting; type: binding; conditions: COS1 cells coexpressing p145 c-ABL(1b)
Method: Anti-Grb2 Western blotting was performed on anti-BCR (1256-1271) antibody immunoprecipitates of lysates from COS1 cells cotransfected p145 c-ABL with either wild type p160 BCR (lanes 1 and 2) or p160 BCR (F177) (lanes 3 and 4) mutant. Lanes 2 and 4 are immunoprecipitation with pre-blocked anti-BCR (1256-1271) antibody. COS1 cells express an endogenous simian Grb2 protein detected by Western blotting (FIG. 18, lane 1). P160 BCR and p145 c-ABL(1b) were separately or simultaneously expressed in COS1 cells. Two days after transfection, cells were harvested. The cell lysates were clarified by ultracentrifugation and the supernatants were incubated with either anti-BCR c-terminal (1256-1271) antibody (FIG. 18, lanes 2, 4 and 6) or peptide preblocked antibody (FIG. 18, lanes 3, 5 and 7). The immunoprecipitated proteins were then fractionated by a 10% polyacrylamide SDS PAGE and then transferred to a p-immoblin membrane. The membrane was then blotted by an anti-Grb2 antibody (FIG. 18). In this study, p145 c-ABL was coexpressed with either wild type p160 BCR or the mutant p160 BCR(F177) in COS1 cells. Cell lysates were subjected to immunoprecipitation by anti-BCR C-terminal (1256-1271) antibody and the immunoprecipitates were analyzed by Western blotting with an anti-Grb2 antibody.

[5] = target: T3, P160^BCR (Homo sapiens, UniProt P11274, Y360F); assay: Immune complex kinase assay of mutant P160 BCR, autophosphorylation; type: biochemical
T3 construct: The original human full length BCR cDNAs were obtained from Dr. John Groffen; expressed in transfected cells; host or cells: COS-1
T3 sequence (P11274 1-1271 Y360F): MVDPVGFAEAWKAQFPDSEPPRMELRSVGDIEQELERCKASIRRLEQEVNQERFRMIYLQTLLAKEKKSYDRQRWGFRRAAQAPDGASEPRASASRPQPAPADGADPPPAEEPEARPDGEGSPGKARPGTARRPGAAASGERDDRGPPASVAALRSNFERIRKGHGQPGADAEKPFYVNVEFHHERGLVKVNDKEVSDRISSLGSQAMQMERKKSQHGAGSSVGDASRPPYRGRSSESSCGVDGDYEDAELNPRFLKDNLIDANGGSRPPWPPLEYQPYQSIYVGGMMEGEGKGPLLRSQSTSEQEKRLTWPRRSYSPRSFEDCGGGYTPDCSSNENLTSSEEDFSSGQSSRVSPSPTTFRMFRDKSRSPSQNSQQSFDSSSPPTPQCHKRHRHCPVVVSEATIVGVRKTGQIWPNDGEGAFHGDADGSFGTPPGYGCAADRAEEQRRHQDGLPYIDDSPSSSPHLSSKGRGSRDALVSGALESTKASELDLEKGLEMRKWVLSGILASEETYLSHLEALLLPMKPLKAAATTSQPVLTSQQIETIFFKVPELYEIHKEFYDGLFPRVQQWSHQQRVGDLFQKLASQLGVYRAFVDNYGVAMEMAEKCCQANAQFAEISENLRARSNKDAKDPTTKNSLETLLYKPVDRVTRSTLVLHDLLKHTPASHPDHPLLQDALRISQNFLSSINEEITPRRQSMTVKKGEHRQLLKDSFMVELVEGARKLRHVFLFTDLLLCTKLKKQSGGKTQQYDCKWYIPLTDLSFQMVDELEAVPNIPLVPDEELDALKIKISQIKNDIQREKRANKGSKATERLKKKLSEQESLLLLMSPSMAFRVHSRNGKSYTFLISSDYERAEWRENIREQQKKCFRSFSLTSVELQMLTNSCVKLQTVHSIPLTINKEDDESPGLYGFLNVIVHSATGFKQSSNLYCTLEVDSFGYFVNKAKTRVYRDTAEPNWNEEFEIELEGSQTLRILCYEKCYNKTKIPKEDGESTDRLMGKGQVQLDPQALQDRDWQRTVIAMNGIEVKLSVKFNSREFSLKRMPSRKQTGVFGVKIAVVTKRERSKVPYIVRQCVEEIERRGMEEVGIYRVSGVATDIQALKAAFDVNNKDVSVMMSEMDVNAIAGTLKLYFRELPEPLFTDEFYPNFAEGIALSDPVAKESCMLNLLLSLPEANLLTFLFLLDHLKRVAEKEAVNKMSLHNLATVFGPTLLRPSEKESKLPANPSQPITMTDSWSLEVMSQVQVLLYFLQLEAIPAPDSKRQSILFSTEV
Description: (§1) Mutant forms of P160^BCR were expressed in COS-1 cells and tested for serine/threonine kinase activities in immune complex kinase assays.

[6] = test system: histone H1; assay: Immune complex kinase assay of mutant P160 BCR, transphosphorylation of histone H1; type: biochemical
Description: as §1
(§2) Using the intensities of the P160^BCR bands as an indication of the amount of active P160^BCR in the immune complex and the intensities of the casein bands as a measure of transphosphorylation activity, the transphosphorylation activity of the Y360F Bcr mutant was reduced about sevenfold, compared with that of the wild type. Similarly, the Y360F Bcr mutant was also defective in transphosphorylating another exogenous substrate, histone H1.

[7] = test system: casein; assay: Immune complex kinase assay of mutant P160 BCR, transphosphorylation of casein; type: biochemical
Description: as §1, §2
The amounts of Bcr within these immune complexes were quantitated in two ways. In a first method, the amounts of Bcr mutants would be underestimated by about 10%, compared with that of the wild type. On the basis of these measurements, the specific activity of transkinase activity (casein intensity/P160^BCR intensity) of the Y360F Bcr mutant (0.03) was reduced more than 20-fold in this study, compared with that of the wild type.
The second method of estimating the amounts of P160^BCR in immune complexes involved the Western blotting of these immune complexes with an anti-Bcr antibody. The specific activity of Y360F was reduced by about sixfold. […] By using autophosphorylation of the Bcr protein as a measure of its relative amount, the reduction of Bcr's transkinase by the Y360F mutation was about sevenfold, confirming the results obtained by the Western blot method.

[8] = first method of quantitating Bcr in immune complexes

Chain of SH2 domain of Grb2 (P62993 whole entry, the tested form may be a part): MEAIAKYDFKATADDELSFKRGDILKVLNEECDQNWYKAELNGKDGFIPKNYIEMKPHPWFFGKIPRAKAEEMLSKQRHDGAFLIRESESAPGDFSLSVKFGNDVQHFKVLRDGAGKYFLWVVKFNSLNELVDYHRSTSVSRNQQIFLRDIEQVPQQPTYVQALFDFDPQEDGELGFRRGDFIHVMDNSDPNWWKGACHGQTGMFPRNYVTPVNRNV

FLKDNLIDANGGSRPPWPPLEYQPYQSIYVGGMMEGEGK (also: phosphotyrosine, position not given here) [#3, phosphotyrosine tryptic peptide 3 of p210 Bcr-Abl]
Binding to GST-Abl SH2 [1]: bind | Binding to GST-Ras Gap SH2 fusion protein [2]: specifically bound

GHGQPGADAEKPFpY^177VNVE (GHGQPGADAEKPF[pY]VNVE) [Bcr Peptide 164-181]
Binding to the SH2 binding site on Grb2 [3]: binds | Binding to the SH2 binding site on Grb2 ([3]; listed as SEQ ID NO:8): strongly binds

NSLETLLYK (NSLETLL[pY]K) [#8, phosphotyrosine tryptic peptide 8 of p210 Bcr-Abl, outside of the first exon]
Binding to GST-Abl SH2 [1]: bind | Binding to GST-Ras Gap SH2 fusion protein [2]: specifically bound

B1: wild type p160 PCR: wild type full length human p160 BCR tyrosine phosphorylated by p145 c-ABL(1b) (protein)
chain: T3 sequence (P11274 1-1271 Y360F) with F360Y
Co-immunoprecipitation of simian Grb2 protein by anti-BCR C-terminal (1256-1271) antibody [4]: bind specifically

B2: p160 BCR lacking tyrosine 177: tyrosine 177 to phenylalanine mutant of p160 BCR (protein)
chain: T3 sequence (P11274 1-1271 Y360F) with Y177F, F360Y
Co-immunoprecipitation of simian Grb2 protein by anti-BCR C-terminal (1256-1271) antibody [4]: much reduced level

B3: Y360F Bcr mutant: P160 BCR with tyrosine 360 to phenylalanine mutation, expressed in COS-1 cells (protein, UniProt P11274 1-1271, looked up, variant Y360F)
Breakpoint cluster region …: T3 sequence (P11274 1-1271 Y360F)
P160^BCR autophosphorylation [5]: not detectably altered | Transphosphorylation of histone H1 [6]: defective | Reduction of specific activity compared with wild type ([7]; P160 BCR amount by Western blotting of immune complexes with anti-Bcr antibody): about sixfold | Reduction of transphosphorylation activity compared with wild type, relative to P160 BCR autophosphorylation band intensity ([7]; casein band intensity / P160 BCR band intensity): about sevenfold | Reduction of specific transkinase activity compared with wild type [7, 8]: more than 20 fold | Specific activity of transkinase activity (casein intensity/P160^BCR intensity) [7, 8]: 0.03 | Ability to transphosphorylate casein compared with wild-type Bcr ([7]; mutant P160 BCR expressed in COS-1 cells): severely inhibited
